Results: the supplement of paper PMC10724198
± gives the standard deviation of the averaged measurements.

Columns and labels:
Saccharomyces cerevisiae [1] = assay: protein stability index of tFT-peptide fusion (C-terminal peptide) (PSI (0-1 scale)); higher = more stable (slower turnover); settings: genetic background: wild type; temperature: 30 C
Saccharomyces cerevisiae [2] = assay: as above
Experimental: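 MPS profiling in S. cerevisiae of the tFT-X12 degron library: putative degron peptides plus stable controls, 12 aa, fused to the C-terminus of a sfGFP-mCherry timer. Cells are FACS-sorted into 8 mCherry/sfGFP bins and deep-sequenced. PSI runs from 0 (unstable) to 1 (stable). Backgrounds are wild type, das1Δ and doa10Δ at 30 °C, and wild type, das1Δ, cdc34-1 and cdc53-1 at 37 °C; 2-3 technical replicates each.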

[3] = genetic background: cdc34-1, temperature: 37 C
[4] = genetic background: cdc53-1, temperature: 37 C
[5] = genetic background: das1 deletion, temperature: 30 C
[6] = genetic background: das1 deletion, temperature: 37 C
[7] = genetic background: doa10 deletion, temperature: 30 C
[8] = genetic background: wild type, temperature: 30 C
[9] = genetic background: wild type, temperature: 37 C
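Note: PSI is a weighted mean of sequencing reads over stability bins, variants kept only with over 10 reads, mCherry proximal and sfGFP distal, peptide attached via GGGS linker.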

Sequence: VWFGGLAVCCGG
- protein stability index (Saccharomyces cerevisiae [1]): 0.396 ± 0.042
- protein stability index (Saccharomyces cerevisiae [2]; [3]): 0.398 ± 0.024
- protein stability index (Saccharomyces cerevisiae [2]; [4]): 0.405 ± 0.037
- protein stability index (Saccharomyces cerevisiae [2]; [5]): 0.303 ± 0.025
- protein stability index (Saccharomyces cerevisiae [2]; [6]): 0.4815 ± 0.0022
- protein stability index (Saccharomyces cerevisiae [2]; [7]): 0.2709 ± 0.0023
- protein stability index (Saccharomyces cerevisiae [2]; [8]): 0.303 ± 0.03
- protein stability index (Saccharomyces cerevisiae [2]; [9]): 0.43156 ± 0.00042

Sequence: YLVSFVAFLRLF
- protein stability index (Saccharomyces cerevisiae [1]): 0.143 ± 0.19
- protein stability index (Saccharomyces cerevisiae [2]; [3]): 0.336 ± 0.02
- protein stability index (Saccharomyces cerevisiae [2]; [4]): 0.446 ± 0.013
- protein stability index (Saccharomyces cerevisiae [2]; [5]): 0.422 ± 0.025
- protein stability index (Saccharomyces cerevisiae [2]; [6]): 0.5418 ± 0.0026
- protein stability index (Saccharomyces cerevisiae [2]; [7]): 0.0967 ± 0.012
- protein stability index (Saccharomyces cerevisiae [2]; [8]): 0.0919 ± 0.018
- protein stability index (Saccharomyces cerevisiae [2]; [9]): 0.1 ± 0.019

Sequence: FSLLLSLSLFHC
- protein stability index (Saccharomyces cerevisiae [1]): 0.31 ± 0.015
- protein stability index (Saccharomyces cerevisiae [2]; [3]): 0.547 ± 0.053
- protein stability index (Saccharomyces cerevisiae [2]; [4]): 0.555 ± 0.018
- protein stability index (Saccharomyces cerevisiae [2]; [5]): 0.534 ± 0.0069
- protein stability index (Saccharomyces cerevisiae [2]; [6]): 0.549 ± 0.006
- protein stability index (Saccharomyces cerevisiae [2]; [7]): 0.183 ± 0.0059
- protein stability index (Saccharomyces cerevisiae [2]; [8]): 0.2 ± 0.025
- protein stability index (Saccharomyces cerevisiae [2]; [9]): 0.356 ± 0.0068

Sequence: RSSGHLLDGRAF
- protein stability index (Saccharomyces cerevisiae [1]): 0.539 ± 0.096
- protein stability index (Saccharomyces cerevisiae [2]; [3]): 0.697 ± 0.03
- protein stability index (Saccharomyces cerevisiae [2]; [4]): 0.739 ± 0.011
- protein stability index (Saccharomyces cerevisiae [2]; [5]): 0.64 ± 0.02
- protein stability index (Saccharomyces cerevisiae [2]; [6]): 0.752 ± 0.011
- protein stability index (Saccharomyces cerevisiae [2]; [7]): 0.631 ± 0.029
- protein stability index (Saccharomyces cerevisiae [2]; [8]): 0.654 ± 0.021
- protein stability index (Saccharomyces cerevisiae [2]; [9]): 0.7353 ± 0.0026

Sequence: ALVWYSLSIIVN
- protein stability index (Saccharomyces cerevisiae [1]): 0.205 ± 0.064
- protein stability index (Saccharomyces cerevisiae [2]; [3]): 0.0193 ± 0.0028
- protein stability index (Saccharomyces cerevisiae [2]; [4]): 0.0815 ± 0.086
- protein stability index (Saccharomyces cerevisiae [2]; [5]): 0.0515 ± 0.03
- protein stability index (Saccharomyces cerevisiae [2]; [6]): 0.0682 ± 0.0034
- protein stability index (Saccharomyces cerevisiae [2]; [7]): 0.0397 ± 0.0011
- protein stability index (Saccharomyces cerevisiae [2]; [8]): 0.0403 ± 0.021
- protein stability index (Saccharomyces cerevisiae [2]; [9]): 0.0736 ± 0.04

Sequence: LIVCVKAITIVS
- protein stability index (Saccharomyces cerevisiae [1]): 0.0363 ± 0.015
- protein stability index (Saccharomyces cerevisiae [2]; [3]): 0.0266 ± 0.0046
- protein stability index (Saccharomyces cerevisiae [2]; [4]): 0.0452 ± 0.011
- protein stability index (Saccharomyces cerevisiae [2]; [5]): 0.0357 ± 0.0096
- protein stability index (Saccharomyces cerevisiae [2]; [6]): 0.0917 ± 0.019
- protein stability index (Saccharomyces cerevisiae [2]; [7]): 0.0226 ± 0.0029
- protein stability index (Saccharomyces cerevisiae [2]; [8]): 0.0194 ± 0.0031
- protein stability index (Saccharomyces cerevisiae [2]; [9]): 0.0521 ± 0.031

Sequence: WVVVGWVGVGFR
- protein stability index (Saccharomyces cerevisiae [1]): 0.445 ± 0.029
- protein stability index (Saccharomyces cerevisiae [2]; [3]): 0.508 ± 0.029
- protein stability index (Saccharomyces cerevisiae [2]; [4]): 0.548 ± 0.038
- protein stability index (Saccharomyces cerevisiae [2]; [5]): 0.383 ± 0.027
- protein stability index (Saccharomyces cerevisiae [2]; [6]): 0.5747 ± 0.0021
- protein stability index (Saccharomyces cerevisiae [2]; [7]): 0.361 ± 0.019
- protein stability index (Saccharomyces cerevisiae [2]; [8]): 0.378 ± 0.016
- protein stability index (Saccharomyces cerevisiae [2]; [9]): 0.55387 ± 0.00053

Sequence: CALFLLSSPSPT
- protein stability index (Saccharomyces cerevisiae [1]): 0.699 ± 0.011
- protein stability index (Saccharomyces cerevisiae [2]; [3]): 0.713 ± 0.061
- protein stability index (Saccharomyces cerevisiae [2]; [4]): 0.781 ± 0.01
- protein stability index (Saccharomyces cerevisiae [2]; [5]): 0.634 ± 0.018
- protein stability index (Saccharomyces cerevisiae [2]; [6]): 0.768 ± 0.012
- protein stability index (Saccharomyces cerevisiae [2]; [7]): 0.659 ± 0.021
- protein stability index (Saccharomyces cerevisiae [2]; [8]): 0.6451 ± 0.0031
- protein stability index (Saccharomyces cerevisiae [2]; [9]): 0.7356 ± 0.0054

Sequence: VALAVRVVVCGA
- protein stability index (Saccharomyces cerevisiae [1]): 0.142 ± 0.041
- protein stability index (Saccharomyces cerevisiae [2]; [3]): 0.0316 ± 0.014
- protein stability index (Saccharomyces cerevisiae [2]; [4]): 0.0354 ± 0.0067
- protein stability index (Saccharomyces cerevisiae [2]; [5]): 0.122 ± 0.039
- protein stability index (Saccharomyces cerevisiae [2]; [6]): 0.106 ± 0.0073
- protein stability index (Saccharomyces cerevisiae [2]; [7]): 0.0887 ± 0.0097
- protein stability index (Saccharomyces cerevisiae [2]; [8]): 0.108 ± 0.028
- protein stability index (Saccharomyces cerevisiae [2]; [9]): 0.0779 ± 0.01

Sequence: FRCFVLPYFGRF
- protein stability index (Saccharomyces cerevisiae [1]): 0.435 ± 0.036
- protein stability index (Saccharomyces cerevisiae [2]; [3]): 0.608 ± 0.032
- protein stability index (Saccharomyces cerevisiae [2]; [4]): 0.699 ± 0.021
- protein stability index (Saccharomyces cerevisiae [2]; [5]): 0.647 ± 0.0081
- protein stability index (Saccharomyces cerevisiae [2]; [6]): 0.7 ± 0.0079
- protein stability index (Saccharomyces cerevisiae [2]; [7]): 0.372 ± 0.037
- protein stability index (Saccharomyces cerevisiae [2]; [8]): 0.37 ± 0.015
- protein stability index (Saccharomyces cerevisiae [2]; [9]): 0.5489 ± 0.0039

Sequence: FGARCSLSPLVT
- protein stability index (Saccharomyces cerevisiae [1]): 0.547 ± 0.1
- protein stability index (Saccharomyces cerevisiae [2]; [3]): 0.7249 ± 0.0062
- protein stability index (Saccharomyces cerevisiae [2]; [4]): 0.753 ± 0.017
- protein stability index (Saccharomyces cerevisiae [2]; [5]): 0.618 ± 0.014
- protein stability index (Saccharomyces cerevisiae [2]; [6]): 0.7463 ± 0.0025
- protein stability index (Saccharomyces cerevisiae [2]; [7]): 0.639 ± 0.035
- protein stability index (Saccharomyces cerevisiae [2]; [8]): 0.652 ± 0.019
- protein stability index (Saccharomyces cerevisiae [2]; [9]): 0.6977 ± 0.0039

Sequence: CFCPILFPRCLA
- protein stability index (Saccharomyces cerevisiae [1]): 0.25 ± 0.072
- protein stability index (Saccharomyces cerevisiae [2]; [3]): 0.476 ± 0.048
- protein stability index (Saccharomyces cerevisiae [2]; [4]): 0.636 ± 0.016
- protein stability index (Saccharomyces cerevisiae [2]; [5]): 0.579 ± 0.045
- protein stability index (Saccharomyces cerevisiae [2]; [6]): 0.6659 ± 0.0023
- protein stability index (Saccharomyces cerevisiae [2]; [7]): 0.142 ± 0.017
- protein stability index (Saccharomyces cerevisiae [2]; [8]): 0.139 ± 0.021
- protein stability index (Saccharomyces cerevisiae [2]; [9]): 0.19 ± 0.013

Sequence: FLSLSFLLLHFP
- protein stability index (Saccharomyces cerevisiae [1]): 0.471 ± 0.064
- protein stability index (Saccharomyces cerevisiae [2]; [3]): 0.398 ± 0.018
- protein stability index (Saccharomyces cerevisiae [2]; [4]): 0.39044 ± 0.00026
- protein stability index (Saccharomyces cerevisiae [2]; [5]): 0.385 ± 0.04
- protein stability index (Saccharomyces cerevisiae [2]; [6]): 0.535 ± 0.0059
- protein stability index (Saccharomyces cerevisiae [2]; [7]): 0.543 ± 0.017
- protein stability index (Saccharomyces cerevisiae [2]; [8]): 0.434 ± 0.041
- protein stability index (Saccharomyces cerevisiae [2]; [9]): 0.479 ± 0.005

Sequence: VFWLLVAVLRYW
- protein stability index (Saccharomyces cerevisiae [1]): 0.307 ± 0.06
- protein stability index (Saccharomyces cerevisiae [2]; [3]): 0.224 ± 0.018
- protein stability index (Saccharomyces cerevisiae [2]; [4]): 0.247 ± 0.0056
- protein stability index (Saccharomyces cerevisiae [2]; [5]): 0.243 ± 0.023
- protein stability index (Saccharomyces cerevisiae [2]; [6]): 0.354 ± 0.0044
- protein stability index (Saccharomyces cerevisiae [2]; [7]): 0.263 ± 0.011
- protein stability index (Saccharomyces cerevisiae [2]; [8]): 0.222 ± 0.016
- protein stability index (Saccharomyces cerevisiae [2]; [9]): 0.325 ± 0.013

Sequence: YLFPHVRPKFPG
- protein stability index (Saccharomyces cerevisiae [1]): 0.488 ± 0.091
- protein stability index (Saccharomyces cerevisiae [2]; [3]): 0.693 ± 0.042
- protein stability index (Saccharomyces cerevisiae [2]; [4]): 0.747 ± 0.014
- protein stability index (Saccharomyces cerevisiae [2]; [5]): 0.658 ± 0.019
- protein stability index (Saccharomyces cerevisiae [2]; [6]): 0.7316 ± 0.0071
- protein stability index (Saccharomyces cerevisiae [2]; [7]): 0.667 ± 0.0085
- protein stability index (Saccharomyces cerevisiae [2]; [8]): 0.664 ± 0.016
- protein stability index (Saccharomyces cerevisiae [2]; [9]): 0.721 ± 0.015

Sequence: WGIPRRPTLFIP
- protein stability index (Saccharomyces cerevisiae [1]): 0.434 ± 0.015
- protein stability index (Saccharomyces cerevisiae [2]; [3]): 0.65 ± 0.0098
- protein stability index (Saccharomyces cerevisiae [2]; [4]): 0.749 ± 0.03
- protein stability index (Saccharomyces cerevisiae [2]; [5]): 0.658 ± 0.011
- protein stability index (Saccharomyces cerevisiae [2]; [6]): 0.7417 ± 0.00092
- protein stability index (Saccharomyces cerevisiae [2]; [7]): 0.296 ± 0.023
- protein stability index (Saccharomyces cerevisiae [2]; [8]): 0.325 ± 0.035
- protein stability index (Saccharomyces cerevisiae [2]; [9]): 0.5193 ± 0.0044

Sequence: LFPLFTLIFVHL
- protein stability index (Saccharomyces cerevisiae [1]): 0.1989 ± 0.00028
- protein stability index (Saccharomyces cerevisiae [2]; [3]): 0.224 ± 0.016
- protein stability index (Saccharomyces cerevisiae [2]; [4]): 0.212 ± 0.017
- protein stability index (Saccharomyces cerevisiae [2]; [5]): 0.265 ± 0.023
- protein stability index (Saccharomyces cerevisiae [2]; [6]): 0.4169 ± 0.0011
- protein stability index (Saccharomyces cerevisiae [2]; [7]): 0.119 ± 0.025
- protein stability index (Saccharomyces cerevisiae [2]; [8]): 0.115 ± 0.019
- protein stability index (Saccharomyces cerevisiae [2]; [9]): 0.1696 ± 0.00078
